This is an account of results in US8008542B2, “Compositions, cells, and plants that include BKI1, a negative regulator of BRI1-mediated BR signaling” (The Salk Institute for Biological Studies, priority 2007, dated 2011).

Assay [1] deals with T1, BRL1 (Arabidopsis thaliana, UniProt Q9ZWC8).
T1 construct: expressed in transfected cells; host or cells: yeast strain MaV203
T1 sequence (Q9ZWC8 859-1147 limits assumed): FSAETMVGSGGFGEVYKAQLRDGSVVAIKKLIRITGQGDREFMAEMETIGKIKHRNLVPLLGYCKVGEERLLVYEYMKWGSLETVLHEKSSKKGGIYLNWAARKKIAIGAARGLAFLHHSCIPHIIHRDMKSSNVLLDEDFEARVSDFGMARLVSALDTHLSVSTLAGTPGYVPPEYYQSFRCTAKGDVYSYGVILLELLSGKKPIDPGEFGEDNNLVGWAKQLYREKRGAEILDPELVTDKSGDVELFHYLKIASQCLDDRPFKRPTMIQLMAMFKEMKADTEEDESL
The experiment in a line: Yeast two-hybrid interaction with BRL1-KD. Format: binding. The procedure: BKI1 fused with GAL4-AD (BKI1-pEXAD502) interacts with the intracellular domain of BRI1 (BRI1-KD), but not CLV1 (CLV1-KD), BRL1 (BRL1-KD), and BRL3 (BRL3-KD), fused with GAL4-DB (in pDBLeu) in yeast. pDBLeu was used as a negative control. Each spot from left to right contains 10 μl yeast cell culture with OD600=0.2, 0.04, 0.008, and 0.0016.

Assay [2] addresses T2, TTL (Arabidopsis thaliana, UniProt Q9LVM5).
T2 construct: full length TTL, and full-length BIN2 were cloned into the pDBLeu vector; expressed in transfected cells; host or cells: yeast strain MaV203
T2 sequence (Q9LVM5 1-324): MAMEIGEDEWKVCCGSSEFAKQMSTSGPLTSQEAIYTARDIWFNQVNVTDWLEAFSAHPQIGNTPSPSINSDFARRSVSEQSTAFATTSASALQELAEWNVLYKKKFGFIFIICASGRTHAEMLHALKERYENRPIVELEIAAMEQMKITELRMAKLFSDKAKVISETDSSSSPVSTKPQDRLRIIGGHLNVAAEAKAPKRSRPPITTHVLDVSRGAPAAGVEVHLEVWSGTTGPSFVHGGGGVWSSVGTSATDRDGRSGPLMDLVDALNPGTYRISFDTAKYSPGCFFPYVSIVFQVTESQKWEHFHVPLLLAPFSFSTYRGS
The experiment in a line: Yeast two-hybrid interaction with TTL. Format: binding.
Description: (§1) A ProQuest Two-Hybrid system with Gateway technology (Invitrogen) was used. […] The full-length (BKI1-FL), and various truncated proteins, 1-252 (BKI1-ΔCT1), 1-299 (BKI1-ΔCT2), and 253-337 (BKI1-CT) of BKI1 were cloned into the pEXPAD502 vector. The kinase domain of NIK1 (NIK1-KD) (Fontes et al. (2004) Genes Dev. 18:2545), BAK1 (BAK1-KD), CLV1 (CLV1-KD), BRL1 (BRL1-KD), BRL3 (BRL3-KD), full length TTL, and full-length BIN2 were cloned into the pDBLeu vector. Interactions were tested on SD medium minus Leu, Trp, and His, and containing 25 mM 3-Amino-1,2,4-Triazole (3AT), using the yeast strain MaV203 according to the manufacturer's manual.

For assay [3], the target named is kinase-inactive BRI1 (mBRI1-KD) (Arabidopsis thaliana, UniProt O22476, K911E). To be noted: yeast two-hybrid, ONPG liquid culture assay.
Description: as §1
Assay [4] concerns the target T3, NIK1 (Arabidopsis thaliana, UniProt Q9LFS4).
T3 construct: The kinase domain of NIK1 (NIK1-KD) (Fontes et al. (2004) Genes Dev. 18:2545); expressed in transfected cells; host or cells: yeast strain MaV203
The experiment in a line: Yeast two-hybrid interaction with NIK1-KD. Format: binding.
Description: as §1

In assay [5] the test system is Arabidopsis seedlings. The experiment in a line: Hypocotyl length and growth phenotype of transgenic lines. To be noted: over-expression from 35S promoter in Col-0. Format: in vivo. On the procedure:
BKI1's function in brassinosteroid signaling was explored in several ways. First, we made transgenic plants harboring a β-glucuronidase (GUS) reporter gene expressed from the promoter of BKI1 to observe the expression pattern of BKI1 (FIG. 1G-J) during development. […] To explore the function of BKI1 in BRI1 signaling, we created RNAi (RNA interference) lines to knockdown BKI1 RNA levels.
Seedlings were grown in short day photoperiods for seven days. At least ten short-day grown seedlings were measured. In FIGS. 2A-B the pBKI1::GUS line was used as a control (control). RNAi-2 and RNAi-7 were two independent RNAi knockdown lines for BKI1. In FIG. 2 C-E, phenotype of plants overexpressing BKI1-FLAG, with Col-0 (left) and a BKI1-FLAG line (right) are shown. 2C. Short-day grown seedlings. 2D. Long-day grown seedlings. 2E. Long-day grown adult plants. In FIG. 2F, leaf morphology of seedlings grown in short days. Col-0 (right) and a BKI1-FLAG line (left) are shown. In FIG. 2G, over-expression of BKI1-YFP leads to a reduced response (hypocotyl length) to BL. At least twenty short-day grown seedlings were measured. In FIG. 2H, over-expression of BKI1-YFP leads to an enhanced response to BRZ220. At least twenty dark-grown seedlings were measured. In FIG. 2I, over-expression of BKI1-YFP results in reduced accumulation of dephosphorylated BES1. […]

Sequence of kinase-inactive BRI1 (mBRI1-KD) (O22476 828-1196 K911E): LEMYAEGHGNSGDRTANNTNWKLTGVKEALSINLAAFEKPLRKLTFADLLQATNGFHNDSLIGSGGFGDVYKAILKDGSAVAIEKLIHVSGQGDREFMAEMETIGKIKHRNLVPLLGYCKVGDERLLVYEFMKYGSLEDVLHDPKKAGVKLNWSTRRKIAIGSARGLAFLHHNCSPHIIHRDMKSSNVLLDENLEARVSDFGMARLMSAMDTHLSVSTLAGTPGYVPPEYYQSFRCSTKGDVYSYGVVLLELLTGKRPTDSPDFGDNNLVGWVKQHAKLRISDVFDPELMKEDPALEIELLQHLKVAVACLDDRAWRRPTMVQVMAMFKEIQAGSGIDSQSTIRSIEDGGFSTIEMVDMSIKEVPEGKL
T3 sequence (Q9LFS4 312-593 limits assumed): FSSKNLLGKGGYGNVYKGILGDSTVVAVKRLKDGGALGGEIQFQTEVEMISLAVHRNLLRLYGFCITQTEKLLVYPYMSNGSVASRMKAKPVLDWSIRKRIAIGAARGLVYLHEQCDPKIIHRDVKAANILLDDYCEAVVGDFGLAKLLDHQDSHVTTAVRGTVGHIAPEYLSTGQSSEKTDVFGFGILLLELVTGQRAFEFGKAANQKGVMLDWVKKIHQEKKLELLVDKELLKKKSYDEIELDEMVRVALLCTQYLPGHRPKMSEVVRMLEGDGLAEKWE

B1: BKI1: BRI1-interacting protein of 337 amino acids, negative regulator of brassinosteroid signaling (SEQ ID NO:1) (protein, listed as Arabidopsis thaliana)
chain: METNLQQVKNSSQTFSEKQNPKQEASPSPISSTCSSPSHDFSFTISLQPLSSSSKHISPTLRSPSKTTSSYQQTDPFAVDLSPADEIFFHGHLLPLHLLSHLPVSPRTSTGSYNDGFTLPVKDILPDQPTNNNNNTENAITNISTEAKDDNTEDKAEGEIRVKTKPIKSFSLFGLSKWRKGFESNEREQEQQQQKIKKPMSLDLSHAVKKYIRMLFQKRGNGTQFWNRRQTSSYSFSSSLMGPNGNSKTMINGSYNKRDLIRGRRGELFSAPASMRTSPTNSGHLRVSTAGLSSSSGSTSSSSSDSTMEELQAAIQAAIAHCKNSSAVDRDDKVKDS
As for B1, the “interaction with kinase domain of BRL1 in yeast” value in assay [1] is “does not interact”. In addition, the “interaction with TTL in yeast” value in assay [2] is “not”. For the same molecule, the “interaction with kinase-inactive BRI1 relative to kinase active BRI1” value in assay [3] was “stronger”. Moreover, the “interaction with kinase domain of NIK1 in yeast” value in assay [4] is on record as “not”. In assay [5], the “plant phenotype on over-expression” value was “dwarf plants”.
